In PMC8618245, “Mechanisms of CP190 Interaction with Architectural Proteins in Drosophila Melanogaster” (International Journal of Molecular Sciences, 2021):
Positions count from the first letter of the chain named. Names and notes keep the numbering of the source.

T1: 6×His-Thioredoxin-fused CP190 1–126 (BTB domain) (Drosophila melanogaster), Q24478
T1 chain: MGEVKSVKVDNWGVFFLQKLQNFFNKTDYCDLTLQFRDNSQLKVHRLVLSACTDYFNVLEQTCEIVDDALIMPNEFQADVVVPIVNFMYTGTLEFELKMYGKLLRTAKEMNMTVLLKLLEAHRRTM

B1: 6×His-Thioredoxin-fused CP190 1–126 L118A (domain or fragment, Drosophila melanogaster, UniProt Q24478 1-126, looked up)
chain: T1 chain with L118A
notes: CP190, Drosophila melanogaster, residues 1–126 (BTB domain); also called BTB^L118A; source: E. coli BL21, co-expressed with the GST fusion, in lysate (pull-down); bacterial expression (cross-linking)
B2: 6×His-Thioredoxin-fused CP190 1–126 V7A (domain or fragment, Drosophila melanogaster, UniProt Q24478 1-126, looked up)
chain: T1 chain with V7A
notes: CP190, Drosophila melanogaster, residues 1–126 (BTB domain); also called BTB^V7A; source: E. coli BL21, co-expressed with the GST fusion, in lysate (pull-down); bacterial expression (cross-linking)
B3: 6×His-Thioredoxin-fused CP190 1–126 V114N (domain or fragment, Drosophila melanogaster, UniProt Q24478 1-126, looked up)
chain: T1 chain with V114N
notes: CP190, Drosophila melanogaster, residues 1–126 (BTB domain); source: E. coli BL21, co-expressed with the GST fusion, in lysate (pull-down); bacterial expression (cross-linking)
B4: 6×His-Thioredoxin-fused CP190 1–126 K19A (domain or fragment, Drosophila melanogaster, UniProt Q24478 1-126, looked up)
chain: T1 chain with K19A
notes: as for B3
B5: 6×His-Thioredoxin-fused CP190 1–126 V114A (domain or fragment, Drosophila melanogaster, UniProt Q24478 1-126, looked up)
chain: T1 chain with V114A
notes: as for B3
B6: 6×His-Thioredoxin-fused CP190 1–126 F15A (domain or fragment, Drosophila melanogaster, UniProt Q24478 1-126, looked up)
chain: T1 chain with F15A
notes: as for B3
B7: 6×His-Thioredoxin-fused CP190 1–126 K117S (domain or fragment, Drosophila melanogaster, UniProt Q24478 1-126, looked up)
chain: T1 chain with K117S
notes: as for B3
B8: 6×His-Thioredoxin-fused CP190 1–126 (BTB domain), Q24478 1-126 (domain or fragment)
chain: T1 chain

Target: the molecule itself
Test: cross-linking; glutaraldehyde, thioredoxin-fused BTB domains at 5 μM, 10 min at room temperature, 20 mM HEPES pH 7.7, 150 mM NaCl, 20 mM imidazole, 1 mM β-mercaptoethanol; SDS-PAGE, silver staining
Conditions: not given

Stoichiometry N, 2:
B1, B2, B3, B4, B5, B6, B7

Target: T1, 6×His-Thioredoxin-fused CP190 1–126 …
Test: as above
Conditions: remark: other sources report otherwise

Stoichiometry N, 2:
B8
